# From patent publication US8889620B2, “Pharmaceutical compositions comprising peptide antagonists of vascular endothelial growth factor” (Children's Medical Center Corporation, priority 1997, dated 2014)
# Entries after “also recorded” stand apart in the source; their conditions may differ. Where no end group is shown, it is not given here.
# How the values were obtained:
# [1] = biological target: T1, KDR/Flk-1 on PAE-KDR cells (Homo sapiens, UniProt P35968); assay: Inhibition of 125I-VEGF165 binding to PAE-KDR cells; parameters: species or system porcine endothelial cells transfected to express KDR/Flk-1; details: 125I-VEGF165 5 ng/ml, FIG. 3C
# T1 construct: expressed in transfected cells; host or cells: porcine endothelial cells (PAE), gift of Dr. Claesson-Welsh
# T1 sequence (P35968 20-1356): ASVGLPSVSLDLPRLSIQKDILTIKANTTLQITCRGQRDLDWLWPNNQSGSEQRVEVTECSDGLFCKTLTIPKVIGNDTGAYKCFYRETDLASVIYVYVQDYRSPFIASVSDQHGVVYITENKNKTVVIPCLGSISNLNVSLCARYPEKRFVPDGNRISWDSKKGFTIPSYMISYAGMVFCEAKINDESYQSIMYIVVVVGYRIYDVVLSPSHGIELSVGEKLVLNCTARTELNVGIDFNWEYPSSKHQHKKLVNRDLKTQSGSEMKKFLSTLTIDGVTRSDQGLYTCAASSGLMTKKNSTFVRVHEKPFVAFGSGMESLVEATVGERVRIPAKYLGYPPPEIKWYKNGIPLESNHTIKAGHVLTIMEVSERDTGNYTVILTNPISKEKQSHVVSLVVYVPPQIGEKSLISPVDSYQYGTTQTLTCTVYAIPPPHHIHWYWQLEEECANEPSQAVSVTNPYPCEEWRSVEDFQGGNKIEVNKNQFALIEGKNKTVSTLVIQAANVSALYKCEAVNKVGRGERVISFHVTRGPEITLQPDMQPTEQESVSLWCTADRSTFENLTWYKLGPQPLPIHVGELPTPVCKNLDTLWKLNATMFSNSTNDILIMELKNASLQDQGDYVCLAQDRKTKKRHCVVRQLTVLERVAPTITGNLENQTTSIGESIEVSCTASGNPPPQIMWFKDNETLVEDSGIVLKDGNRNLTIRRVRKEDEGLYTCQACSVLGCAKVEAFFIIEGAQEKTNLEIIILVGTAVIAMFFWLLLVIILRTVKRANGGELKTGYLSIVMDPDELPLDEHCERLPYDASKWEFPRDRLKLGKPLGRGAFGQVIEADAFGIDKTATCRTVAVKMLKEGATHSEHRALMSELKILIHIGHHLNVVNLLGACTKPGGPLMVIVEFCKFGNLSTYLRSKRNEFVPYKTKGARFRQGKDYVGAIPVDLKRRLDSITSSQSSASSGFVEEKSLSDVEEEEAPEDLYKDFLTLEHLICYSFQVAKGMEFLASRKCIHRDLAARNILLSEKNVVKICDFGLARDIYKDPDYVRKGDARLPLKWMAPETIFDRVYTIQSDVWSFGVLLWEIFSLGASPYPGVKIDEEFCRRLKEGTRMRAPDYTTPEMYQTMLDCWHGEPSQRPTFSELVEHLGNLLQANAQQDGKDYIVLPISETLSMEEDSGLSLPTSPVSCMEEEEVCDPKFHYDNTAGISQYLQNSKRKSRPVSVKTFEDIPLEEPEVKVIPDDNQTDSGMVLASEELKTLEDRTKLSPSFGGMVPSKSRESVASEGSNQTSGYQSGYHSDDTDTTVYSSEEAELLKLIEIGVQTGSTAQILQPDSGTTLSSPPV
# Description: (§1) FIGS. 3A-3C. Inhibition of ^125I-VEGF165 binding to HUVEC, MDA MB 231 cells, and PAE-KDR cells by GST-EX 7+8. ^125I-VEGF165 (5 ng,/ml) was bound to subconfluent cultures of HUVEC (3A), MDA MB 23 1 cells (3B), and PAE-KDR cells (3C) in 48-well dishes in the presence of increasing amounts of GST-Ex 7+8 (closed 20 square) or control GST protein (open squares). At the end of a 2-h incubation, the cells were washed and lysed, and the cell-associated radioactivity was determined with a γ-counter. The counts obtained are expressed as the percentage of the counts obtained in the presence of PBS without addition of GST or fusion protein.
# Human umbilical vein endothelial cells (HUVEC) were obtained from the American Type Culture Collection (ATCC) (Rockville, Md.) and grown on gelatin-coated dishes in M-199 medium containing 20% fetal calf serum (FCS) and a mixture of glutamine, penicillin, and streptomycin (GPS). Basic FGF (1 nglml) was added to the culture medium every other day. Porcine endothelial cells (PAE), parental and transfected to express KDRElk-1 (PAE-KDR), were kindly provided by Dr. Lema Claesson-Welsh and grown in F12 medium containing 10% FCS and GPS as described (Waltenberger, et al., J. Biol. Chem., 269,26988-26995 (1994)). MDAMB-231 (231) cells were obtained from ATCC and grown in Bulbecoo's modified Eagle's medium containing 10% FCS and GPS.
# (§2) Binding and cross-linking experiments using 125I-VEGF165 and 125I-VEGF121 were performed at described previously (Gitay-Goren, et al., J. Biol. Chem., 287, 6003-6096 (1992), Soker, et al., J: Biol. Chem., 271,5761-5767 (1996)). VEGF binding was quantified by measuring the cell-associated radioactivity in a y-counter (Beckman, Gamma 5500). The counts represent the average of three walls. All experiments were repeated at least three times, and similar results were obtained. 125I-VEGF cross-linked complexes were resolved by 6% SDS-PAGE, and the gels were exposed to a phosphor screen and scanned after 24 h by a PhosphorImager (Molecular Dynamics). Subsequently, the gels were exposed to x-ray film.
# KDR/Flk-1 [2] = biological target: T2, KDR/Flk-1 (Homo sapiens, UniProt P35968); assay: Direct binding/cross-linking of 125I-GST-Ex 7 to HUVEC: KDR/Flk-1; parameters: HUVEC, which express both KDR/Flk-1 and VEGF165R; endogenous in cells; host or cells: HUVEC (ATCC); details: cross-linking, 1 ug/ml heparin, FIG. 1 lane 3
# T2 sequence (P35968 20-1356): as above
# Description: (§3) FIG. 1. Cross-linking of 1 ^125I-VEGF165, ^125I-VEGF121 and ^125I-GST-EX 7 to HUVEC. ^125I-VEGF165 (5 ng/ml) (lane 1) or ^125I-VEGF121 (10 ng/ml) (lane 2) or ^125I-GST-EX 7 (50 nglml) (lane 3) were bound to subconfluent cultures of HUVEC in 6-cm dishes. The binding was carried out in the presence of 1 ug/ml heparin. At the end of a 2-H incubation, each ^125I-VEGF isoform was chemically cross-linked to the cell surface. The cells were lysed and proteins were resolved by 6% SDS-PAGE. The polyacrylamide gel was dried and exposed to x-ray film.
# as §2
# VEGF165R on 231 cells = biological target: T3, VEGF165R on 231 cells (Homo sapiens, UniProt O14786); assay: Inhibition of 125I-VEGF165 binding to MDA-MB-231 (231) cells
# T3 construct: to 231 cells which express only VEGF165R; endogenous in cells; host or cells: MDA-MB-231 (ATCC)
# T3 sequence (O14786 22-923): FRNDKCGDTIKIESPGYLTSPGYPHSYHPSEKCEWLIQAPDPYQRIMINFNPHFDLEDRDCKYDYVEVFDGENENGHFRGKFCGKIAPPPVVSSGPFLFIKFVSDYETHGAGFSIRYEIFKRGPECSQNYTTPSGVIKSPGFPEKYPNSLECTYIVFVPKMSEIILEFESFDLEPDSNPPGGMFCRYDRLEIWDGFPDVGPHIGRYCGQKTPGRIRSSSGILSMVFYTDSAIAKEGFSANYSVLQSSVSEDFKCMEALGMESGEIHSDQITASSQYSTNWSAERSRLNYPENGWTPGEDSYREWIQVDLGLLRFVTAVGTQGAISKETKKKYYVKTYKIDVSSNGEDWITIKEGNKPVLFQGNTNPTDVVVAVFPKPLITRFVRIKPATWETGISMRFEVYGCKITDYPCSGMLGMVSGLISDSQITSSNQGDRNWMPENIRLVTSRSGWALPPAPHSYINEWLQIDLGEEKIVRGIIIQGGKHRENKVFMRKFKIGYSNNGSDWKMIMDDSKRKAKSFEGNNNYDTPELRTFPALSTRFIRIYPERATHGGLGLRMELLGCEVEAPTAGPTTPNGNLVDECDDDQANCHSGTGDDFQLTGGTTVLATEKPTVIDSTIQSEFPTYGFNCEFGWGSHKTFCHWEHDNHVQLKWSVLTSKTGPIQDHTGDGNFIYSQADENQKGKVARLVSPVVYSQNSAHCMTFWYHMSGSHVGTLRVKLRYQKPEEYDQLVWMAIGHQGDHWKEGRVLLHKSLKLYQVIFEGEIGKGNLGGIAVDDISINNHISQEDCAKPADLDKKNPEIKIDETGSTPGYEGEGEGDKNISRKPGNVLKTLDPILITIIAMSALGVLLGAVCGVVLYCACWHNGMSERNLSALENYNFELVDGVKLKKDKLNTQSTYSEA
# Description: as §1, §2
# VEGF165R [3] = biological target: T4, VEGF165R (Homo sapiens, UniProt O14786); assay: Direct binding/cross-linking of 125I-GST-Ex 7 to HUVEC: VEGF165R; parameters: HUVEC, which express both KDR/Flk-1 and VEGF165R; endogenous in cells; host or cells: HUVEC (ATCC); details: cross-linking, 1 ug/ml heparin, FIG. 1 lane 3
# T4 sequence (O14786 22-923): as above
# Description: as §3, §2
# KDR/Flk-1 [4] = biological target: T2, KDR/Flk-1; assay: Cross-linking of 125I-VEGF165 to KDR/Flk-1 on PAE-KDR cells; format: binding, porcine endothelial cells transfected to express KDR/Flk-1; parameters: expressed in transfected cells; host or cells: porcine endothelial cells (PAE), gift of Dr. Claesson-Welsh; details: data not shown
# Description: as §2
# KDR/Flk-1 [5] = assay: Cross-linking of 125I-VEGF121 to KDR/Flk-1 of HUVEC; format: binding, human; details: 15 ug/ml fusion protein, FIG. 8 lane 2
# Description: FIG. 8. GST-Ex 7+8 fusion protein inhibits cross-linking of ^125I-VEGF121 to KDR/Flk-1 of HUVEC ^125I-VEGF121 (2˜0 ng/ml) was bound to subconfluent cultures of HUVEC in 6-cm dishes. The binding was carried out in the presence (lane 2) or the absence (lane 1) of 15 ug/ml GST-Ex 7+8. Heparin (1 ug/ml) was added to each dish. At the end of a 2-h incubation, ^125I-VEGF was chemically cross-linked to the cell surface. The cells were lysed, and proteins were resolved by 6% SDS-PAGE. The gel was dried and exposed to x-ray film.
# as §2
# VEGF165R [6] = biological target: T4, VEGF165R; assay: Cross-linking of 125I-VEGF165 to VEGF165R on HUVEC; format: binding; parameters: HUVEC, which express both KDR/Flk-1 and VEGF165R; endogenous in cells; host or cells: HUVEC (ATCC); details: 15 ug/ml fusion protein, FIG. 4 lane 2
# Description: FIG. 4. GST-EX 7+8 fusion protein inhibits cross-linking of ^125I-VEGF165 to ^125I-VEGF165R and to KDR/Flk-1. ^125I-VEGF165 (5 ng/ml) was bound to subconfluent cultures of HUVEC (lanes 1 and 2) and MDA-MB-23 1 cells (lanes 3 and 4) in 6-cm dishes. The binding was carried out in the presence (lanes 2 and 4) or the absence (lanes 1 and 3) of 15 ug/ml GST-Ex 7+8. Heparin (1 ug/ml) was added to each dish. At the end of a 2-h incubation, ^125I-VEGF165 was chemically cross-linked to the cell surface. The cells were lysed, and proteins were resolved by 6% SDS-PAGE. The gel was dried and exposed to x-ray film.
# as §2
substance,measurement,setting,value
"GST-Ex 7+8: GST fusion protein containing the peptide encoded by VEGF165 exons 7 and 8 (PCGPCSERRKHLFVQDPQTCKCSCKNTDSRCKARQLELNERTCRCDKPRR; cysteine pairing not given here; also: GST fusion protein, side of fusion not given here)",inhibition of 125I-VEGF165 binding to PAE-KDR cells (in words),[1],did not inhibit
same,direct binding to KDR/Flk-1 on HUVEC (in words),KDR/Flk-1 [2],not and does not bind directly
same,inhibition of 125I-VEGF165 binding to 231 cells,"VEGF165R on 231 cells; 125I-VEGF165 5 ng/ml, increasing concentrations of fusion protein, FIG. 3B",97-98%
same,VEGF165 binding to 231 breast cancer cells (in words),VEGF165R on 231 cells; cells express VEGF165R and not KDR/Flk-1,inhibits
same,direct binding to VEGF165R on HUVEC (in words),VEGF165R [3],binds
same,cross-linking of 125I-VEGF165 to KDR/Flk-1 on PAE-KDR cells (in words),KDR/Flk-1 [4],did not inhibit
same,formation of 240-kDa 125I-VEGF121/KDR/Flk-1 cross-linked complexes on HUVEC (in words),KDR/Flk-1 [5],significantly inhibited; also recorded: diminished binding
same,formation of 165-175-kDa 125I-VEGF165/VEGF165R cross-linked complexes on HUVEC (in words),VEGF165R [6],markedly inhibited
